What all share (settings): both partners purified
Experiment [1] has as its target T1, IMA-3-His6 (IMA-3 importin-α) (C. elegans, UniProt Q19969 1-514, labeled using the RED-tris-NTA His tag protein labeling kit).
T1 construct: IMA-3, importin-α of C. elegans; also called HisTag::IMA-3; source: E. coli BL21 (DE3), purified (Ni-NTA, desalting spin column)
T1 sequence (looked up): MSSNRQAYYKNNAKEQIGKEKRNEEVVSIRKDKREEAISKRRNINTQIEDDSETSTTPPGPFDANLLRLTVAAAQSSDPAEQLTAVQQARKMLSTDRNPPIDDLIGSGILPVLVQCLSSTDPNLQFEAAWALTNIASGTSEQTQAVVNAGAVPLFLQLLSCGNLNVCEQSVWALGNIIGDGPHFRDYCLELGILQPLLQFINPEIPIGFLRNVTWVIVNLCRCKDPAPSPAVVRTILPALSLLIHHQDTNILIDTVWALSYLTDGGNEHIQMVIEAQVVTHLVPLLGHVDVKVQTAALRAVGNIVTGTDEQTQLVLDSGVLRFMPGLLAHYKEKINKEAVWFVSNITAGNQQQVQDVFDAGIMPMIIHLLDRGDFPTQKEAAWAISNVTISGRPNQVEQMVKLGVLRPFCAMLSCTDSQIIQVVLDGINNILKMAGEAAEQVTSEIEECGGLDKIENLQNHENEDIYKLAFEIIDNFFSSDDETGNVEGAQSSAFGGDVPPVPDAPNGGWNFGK
As to the kind of experiment: MST; Monolith NT.115; RED-tris-NTA labeled IMA-3-His6 at 100 nM, serial dilution of unlabeled CMK-1 in 1x PBS with 0.05% Tween 20; 40% laser power; with 2 mM Ca2+, no CaM.

The target in experiment [2] is T1, IMA-3-His6 (IMA-3 importin-α). As to the kind of experiment: MST; Monolith NT.115; RED-tris-NTA labeled IMA-3-His6 at 100 nM, serial dilution of unlabeled CMK-1 in 1x PBS with 0.05% Tween 20; 40% laser power; no Ca2+, no CaM; triplicates.
For experiment [3] the target is unchanged. As to the kind of experiment: MST; Monolith NT.115; RED-tris-NTA labeled IMA-3-His6 at 100 nM, serial dilution of unlabeled CMK-1 in 1x PBS with 0.05% Tween 20; 40% laser power; with 2 mM CaCl2 and 8 µM CaM; triplicates.

One may read the Kd as the equilibrium constant for the complex coming apart.

B1: CMK-1(wt), calcium/calmodulin-dependent protein kinase-1 (enzyme, C. elegans, UniProt Q9TXJ0 1-348, looked up)
chain: MPLFKRRDGSGPAPNATIREKYDFRDVLGTGAFSKVFLAESKSDAGQMYAVKCIDKKALKGKEESLENEIKVLRKLRHNNIVQLFDTYDEKQFVYLVMELVTGGELFDRIVAKGSYTEQDASNLIRQVLEAVGFMHDNGVVHRDLKPENLLYYNQDEDSKIMISDFGLSKTEDSGVMATACGTPGYVAPEVLQQKPYGKAVDVWSIGVIAYILLCGYPPFYDESDANLFAQIIKGEYEFDAPYWDQISDSAKDFITHLMCCDPEARFTCQDALSHPWISGNTAYTHDIHGTVAVHLKKSLAKRNWKKAYNAAAAIRQLQMLRLSSNSNRLQKQASQQQPEPPTPAFHA
notes: CMK-1 of C. elegans, ortholog of mammalian CaMKI/IV; cmk-1 cds inserted in pDK2409 (plasmid dg922 [cmk-1(wt)::GST-TEV]); TEV cleavage removes the GST tag to recover untagged CMK-1; also called CaMKI; source: E. coli BL21 (DE3), purified (Glutathione beads, eluted by TEV cleavage)
For B1, the Kd amounted to 1140 nM in experiment [1], 1540 nM in experiment [2] and 450 nM in experiment [3].

B2: CMK-1(K71A/R74Q/R77S) (enzyme, C. elegans, UniProt Q9TXJ0 1-348, looked up)
chain: MPLFKRRDGSGPAPNATIREKYDFRDVLGTGAFSKVFLAESKSDAGQMYAVKCIDKKALKGKEESLENEIAVLQKLSHNNIVQLFDTYDEKQFVYLVMELVTGGELFDRIVAKGSYTEQDASNLIRQVLEAVGFMHDNGVVHRDLKPENLLYYNQDEDSKIMISDFGLSKTEDSGVMATACGTPGYVAPEVLQQKPYGKAVDVWSIGVIAYILLCGYPPFYDESDANLFAQIIKGEYEFDAPYWDQISDSAKDFITHLMCCDPEARFTCQDALSHPWISGNTAYTHDIHGTVAVHLKKSLAKRNWKKAYNAAAAIRQLQMLRLSSNSNRLQKQASQQQPEPPTPAFHA
notes: CMK-1 of C. elegans with three point mutations in the NLS 71-78; plasmid dg929 [cmk-1(K71A/R74Q/R77S)::GST-TEV] made by site-directed mutagenesis from dg922; TEV cleavage removes the GST tag; also called NLS71-78 mutant CMK-1; CMK-1 (K71A/R74Q/R77S) triple mutant; source: E. coli BL21 (DE3), purified (Glutathione beads, eluted by TEV cleavage)
Turning to B2, the Kd was determined as 1220 nM in experiment [2] and 1000 nM in experiment [3].

The values above are taken from PMC8635976, “Ca^2+/CaM binding to CaMKI promotes IMA-3 importin binding and nuclear translocation in sensory neurons to control behavioral adaptation” (eLife, 2021).
